The target in the assay is T1, extracellular soluble domain of sortilin, residues 78-755 (Homo sapiens, UniProt Q99523).
T1 construct: the extracellular soluble domain of sortilin, residues 78-755, was expressed in Expi293F cell line; made in house; host or cells: Expi293F
Description: microplate binding assay, enzymic activity of sortilin-bound GAA tagged protein. The source says: FIG. 2. α-D-glucopyranoside activity of sortilin-bound GAA tagged protein. Extracellular soluble sortilin domain with a C-terminal TwinStrep tag for immobilized on a 96-well microplate. […] A fluorogenic 4-methylumbelliferyl-α-D-glucopyranoside substrate was used to measure α-D-glucopyranoside activity of the sortilin-bound tagged proteins.
For a microplate binding assay, the extracellular soluble domain of sortilin, residues 78-755, was expressed in Expi293F cell line (using Expi293 Expression System; Thermo Fisher, A14635) with a C-terminal TwinStrep affinity tag. Harvests were collected after 5 days. Conditioned media was incubated with StrepTactin XT coated microplates (IBA, 2-4101-001) for 1 hour to immobilize sortilin to the plates. After several washes, wells coated with sortilin were incubated with varying doses of NT-GAA, GAA-NT or GAA diluted into PBS for 30 minutes. The unbound protein was then washed away. The α-D-glucopyranoside activity of the bound GAA tagged protein was measured using a fluorogenic substrate, 4-methylumbelliferyl-α-D-glucopyranoside, at pH 4.8. […] The inflection point in both binding curves indicates bivalency of sortilin for neurotensin.

As for “GAA: GAA with no NT tag; lysosomal alpha-glucosidase (RefSeq: NM_000152.5) [reference compound]”, the “α-D-glucopyranoside activity of sortilin-bound protein” value (immobilized sortilin, 30 minutes in PBS, 4-methylumbelliferyl-α-D-glucopyranoside, pH 4.8, FIG. 2) was “no α-D-glucopyranoside activity”. In addition, the binding to sortilin entry (inferred from absence of activity in sortilin-coated wells, FIG. 2) is “did not bind to sortilin”.

(Values after patent US20240318157A1, “Neurotensin Variants And Tagged Proteins Comprising Neurotensin Or Sortilin Propeptide” (Amicus Therapeutics, Inc., priority 2021, published 2024).)
